T1: TNFR1 extracellular domain (TNFRSF1A, Leu34-Thr211) (UniProt P19438 34-211)
T1 construct: range 34-211; ECD cloned into pBadThioTopo; E. coli lysate on His capture plates
T1 sequence (looked up): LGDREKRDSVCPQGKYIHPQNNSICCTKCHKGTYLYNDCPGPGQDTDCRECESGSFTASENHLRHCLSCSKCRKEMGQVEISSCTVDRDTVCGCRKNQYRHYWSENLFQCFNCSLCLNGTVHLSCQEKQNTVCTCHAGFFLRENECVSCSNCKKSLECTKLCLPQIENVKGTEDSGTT

T2: hGITR (human, UniProt Q9Y5U5)
T2 construct: extracellular domain, E. coli lysate captured on a His capture plate; Target named only on the sheet; the construct is not described in the text
T2 sequence (extracellular domain, looked up): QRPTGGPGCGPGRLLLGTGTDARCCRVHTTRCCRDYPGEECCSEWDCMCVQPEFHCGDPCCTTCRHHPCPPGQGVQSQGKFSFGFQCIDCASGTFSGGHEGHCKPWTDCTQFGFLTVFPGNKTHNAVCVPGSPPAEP

T3: DcR2 extracellular domain (TNFRSF10D, Thr57-Thr198) (UniProt Q9UBN6 57-198)
T3 construct: range 57-198; ECD cloned into pBadThioTopo; E. coli lysate on His capture plates
T3 sequence (looked up): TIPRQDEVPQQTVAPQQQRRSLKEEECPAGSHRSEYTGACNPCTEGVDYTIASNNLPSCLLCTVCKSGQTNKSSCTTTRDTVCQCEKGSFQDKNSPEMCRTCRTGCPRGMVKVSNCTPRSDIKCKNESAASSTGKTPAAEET

T4: OX40 extracellular domain (TNFRSF4, Gly33-Gly212) (UniProt P43489 33-212)
T4 construct: ECD cloned into pBadThioTopo; E. coli lysate on His capture plates
T4 sequence (looked up): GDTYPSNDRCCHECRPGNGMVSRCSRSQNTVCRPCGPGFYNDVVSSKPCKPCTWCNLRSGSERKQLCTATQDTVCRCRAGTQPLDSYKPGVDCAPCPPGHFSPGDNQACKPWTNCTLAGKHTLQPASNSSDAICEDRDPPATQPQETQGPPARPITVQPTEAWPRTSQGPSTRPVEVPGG

T5: OPG (TNFRSF11B, Lys17-Ile197) (UniProt O00300 17-197)
T5 construct: range 17-197; ECD cloned into pBadThioTopo; E. coli lysate on His capture plates
T5 sequence (looked up): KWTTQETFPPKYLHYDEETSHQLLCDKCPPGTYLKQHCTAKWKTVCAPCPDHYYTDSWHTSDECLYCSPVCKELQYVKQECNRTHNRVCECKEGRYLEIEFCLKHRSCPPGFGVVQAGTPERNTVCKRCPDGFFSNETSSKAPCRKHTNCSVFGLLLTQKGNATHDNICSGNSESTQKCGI

T6: DcR3 (TNFRSF6B, Val27-Ala176) (UniProt O95407 27-176)
T6 construct: range 27-176; ECD cloned into pBadThioTopo; E. coli lysate on His capture plates
T6 sequence (looked up): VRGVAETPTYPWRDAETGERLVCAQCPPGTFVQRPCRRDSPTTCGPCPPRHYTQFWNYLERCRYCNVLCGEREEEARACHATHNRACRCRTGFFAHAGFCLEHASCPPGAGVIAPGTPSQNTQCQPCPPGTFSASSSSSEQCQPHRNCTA

T7: FAS extracellular domain (TNFRSF6, Ser20-Gly175) (UniProt P25445 20-175)
T7 construct: ECD cloned into pBadThioTopo; E. coli lysate on His capture plates
T7 sequence (looked up): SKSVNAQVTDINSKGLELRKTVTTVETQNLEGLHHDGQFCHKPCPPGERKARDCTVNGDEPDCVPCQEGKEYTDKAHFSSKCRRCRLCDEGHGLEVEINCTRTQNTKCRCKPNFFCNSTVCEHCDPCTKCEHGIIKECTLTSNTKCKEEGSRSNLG


What was measured:
[1] = target: T8, CD40 extracellular domain (TNFRSF5, Val18-Leu192) (UniProt P25942 18-192); test: ELISA, receptor ECD from E. coli lysate on His capture plate;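 further: binding specificity screen across TNF receptor superfamily ectodomains, anti-V5 detection as expression reference, primary antibody incubation 1 h at room temperature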
T8 construct: range 18-192; ECD cloned into pBadThioTopo; E. coli lysate on His capture plates
T8 sequence (P25942 18-192 limits assumed): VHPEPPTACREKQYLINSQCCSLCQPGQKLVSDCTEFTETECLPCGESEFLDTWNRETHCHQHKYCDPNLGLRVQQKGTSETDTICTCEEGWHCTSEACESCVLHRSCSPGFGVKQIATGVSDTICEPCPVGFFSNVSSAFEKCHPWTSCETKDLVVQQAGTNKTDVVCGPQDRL

[2] = target: T1, TNFR1 extracellular domain (TNFRSF1A, …); test: as above
hGITR = target: T2, hGITR; test: as above
[3] = target: T9, BAFFR extracellular domain (TNFRSF13C, Met1-Gly64) (UniProt Q96RJ3 1-64); test: as above
T9 construct: range 1-64; ECD cloned into pBadThioTopo; E. coli lysate on His capture plates
T9 sequence (Q96RJ3 1-64 limits assumed): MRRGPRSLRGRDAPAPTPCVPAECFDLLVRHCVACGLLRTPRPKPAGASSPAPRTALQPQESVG

[4] = target: T3, DcR2 extracellular domain (TNFRSF10D, …); test: as above
[5] = target: T4, OX40 extracellular domain (TNFRSF4, …); test: as above
[6] = target: T10, CD137 extracellular domain (TNFRSF9, Glu19-Ile188) (UniProt Q07011 19-188); test: as above
T10 construct: range 19-188; ECD cloned into pBadThioTopo; E. coli lysate on His capture plates
T10 sequence (Q07011 19-188 limits assumed): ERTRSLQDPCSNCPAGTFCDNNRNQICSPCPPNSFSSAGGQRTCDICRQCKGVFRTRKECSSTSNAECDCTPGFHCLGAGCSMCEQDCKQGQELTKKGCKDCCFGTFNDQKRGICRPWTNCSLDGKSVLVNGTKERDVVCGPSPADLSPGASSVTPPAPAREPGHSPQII

[7] = target: T5, OPG (TNFRSF11B, Lys17-Ile197); test: as above
[8] = target: T6, DcR3 (TNFRSF6B, Val27-Ala176); test: as above
[9] = target: T11, TNFR3 extracellular domain (TNFRSF3, Pro30-Thr224) (UniProt P36941 30-224); test: as above
T11 construct: range 30-224; ECD cloned into pBadThioTopo; E. coli lysate on His capture plates
T11 sequence (P36941 30-224 limits assumed): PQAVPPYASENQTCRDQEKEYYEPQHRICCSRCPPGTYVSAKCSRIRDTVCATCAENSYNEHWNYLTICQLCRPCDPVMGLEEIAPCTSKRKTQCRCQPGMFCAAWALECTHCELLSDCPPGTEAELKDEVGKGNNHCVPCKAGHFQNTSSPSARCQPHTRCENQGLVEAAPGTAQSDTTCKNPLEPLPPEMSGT

[10] = target: T7, FAS extracellular domain (TNFRSF6, …); test: as above
[11] = target: T12, CD27 extracellular domain (TNFRSF7, Thr21-Ser187) (UniProt P26842 21-187); test: as above
T12 construct: range 21-187; ECD cloned into pBadThioTopo; E. coli lysate on His capture plates
T12 sequence (P26842 21-187 limits assumed): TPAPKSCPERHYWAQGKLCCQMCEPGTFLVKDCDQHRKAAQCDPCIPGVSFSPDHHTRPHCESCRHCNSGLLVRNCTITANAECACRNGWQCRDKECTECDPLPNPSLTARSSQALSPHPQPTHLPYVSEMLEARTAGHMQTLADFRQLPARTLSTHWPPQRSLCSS

[12] = target: T13, cell-bound human DR5 (Colo205 and other human cell lines) (human, UniProt O14763 56-440); test: cell-based or functional assay
[13] = target: cynomolgus DR5-Fc fusion protein (cyno DR5 amino acids 56 to 213 fused with human IgG1 Fc) (cynomolgus; human); test: SPR (Biacore), CM5 chip coated with cynomolgus DR5-Fc, 1 to 100 nM NB construct
[14] = target: T13, cell-bound human DR5 (Colo205 and other …); test: cell-based or functional assay; remark: listed apart in the source

Binder | binding result [1] | binding result [2] | binding result (hGITR) | binding result [3] | binding result [4] | binding result [5] | binding result [6] | binding result [7] | binding result [8] | binding result [9] | binding result [10] | binding result [11] | IC50, cell survival, Colo205 [12] [nM] | Kd [13] [nM] | IC50, cell survival, A549 [14] [nM] | IC50, cell survival, ARPE-19 [14] [nM] | IC50, cell survival, H226 [14] [nM] | IC50, cell survival, H2052 [14] [nM] | IC50, cell survival, H2122 [14] [nM] | IC50, cell survival, Huvec [14] [nM] | further results
7A12 tri (trivalent anti-DR5 NB construct) (VHH, three VHH units in one chain joined by GlySer linkers; not shown: CMYC-HIS6 tag) EVQLVESGGGLVQAGGSLRLSCAASGRTFSNYAMGWFRQAPGKEREFVAALNWSGGSTYYVDSVKGRFTISRDNAKNTVYLQMNSLKPEDTAVYYCAAAGSFSLGGRPYGDDYWGKGTLVTVSSGGGGSGGGGSGGGGSGGGGSGGGGSGGGGSGGGGSEVQLVESGGGLVQAGGSLRLSCAASGRTFSNYAMGWFRQAPGKEREFVAALNWSGGSTYYVDSVKGRFTISRDNAKNTVYLQMNSLKPEDTAVYYCAAAGSFSLGGRPYGDDYWGKGTLVTVSSGGGGSGGGGSGGGGSGGGGSGGGGSGGGGSGGGGSEVQLVESGGGLVQAGGSLRLSCAASGRTFSNYAMGWFRQAPGKEREFVAALNWSGGSTYYVDSVKGRFTISRDNAKNTVYLQMNSLKPEDTAVYYCAAAGSFSLGGRPYGDDYWGKGTLVTVSS | no binding (tested: not stated) | no binding (tested: not stated) | no binding (tested: not stated) | no binding (tested: not stated) | no binding (tested: not stated) | no binding (tested: not stated) | no binding (tested: not stated) | no binding (tested: not stated) | no binding (tested: not stated) | no binding (tested: not stated) | no binding (tested: not stated) | no binding (tested: not stated) | 0.12 | < 0.03 | ≥ 20 | ≥ 20 | 0.03 | 0.064 | 0.008 | ≥ 20 | IC50, cell survival, IMR-90 [14]: ≥ 20 nM; IC50, cell survival, Jurkat [14]: ≥ 20 nM; IC50, cell survival, M30 [14]: ≥ 20 nM; IC50, cell survival, MiaPaCa-2 [14]: ≥ 20 nM; IC50, cell survival, Molt4 [14]: ≥ 20 nM; IC50, cell survival, Panc-1 [14]: ≥ 20 nM
11D1 tri (trivalent anti-DR5 NB construct) (VHH, three VHH units in one chain joined by GlySer linkers; not shown: CMYC-HIS6 tag) EVQLVESGGGLVQPGGSLRLSCAASGSIDSINNMGWYRQAPGKQRELVAEITPRGRTNYADSEKSRFTISRDNAKRTVNLQMNSLKPEDTAVYYCNAEVRERGTSWYRPDYWGQGTQVTVSSGGGGSGGGGSGGGGSGGGGSGGGGSGGGGSGGGGSEVQLVESGGGLVQPGGSLRLSCAASGSIDSINNMGWYRQAPGKQRELVAEITPRGRTNYADSEKSRFTISRDNAKRTVNLQMNSLKPEDTAVYYCNAEVRERGTSWYRPDYWGQGTQVTVSSGGGGSGGGGSGGGGSGGGGSGGGGSGGGGSGGGGSEVQLVESGGGLVQPGGSLRLSCAASGSIDSINNMGWYRQAPGKQRELVAEITPRGRTNYADSEKSRFTISRDNAKRTVNLQMNSLKPEDTAVYYCNAEVRERGTSWYRPDYWGQGTQVTVSS | no binding (tested: not stated) | no binding (tested: not stated) | no binding (tested: not stated) | no binding (tested: not stated) | no binding (tested: not stated) | no binding (tested: not stated) | no binding (tested: not stated) | no binding (tested: not stated) | no binding (tested: not stated) | no binding (tested: not stated) | no binding (tested: not stated) | no binding (tested: not stated) | 0.111 | < 0.2 | ≥ 20 | ≥ 20 | 0.03 | 0.015 | 0.004 | ≥ 20 | IC50, cell survival, IMR-90 [14]: ≥ 20 nM; IC50, cell survival, Jurkat [14]: ≥ 20 nM; IC50, cell survival, M30 [14]: ≥ 20 nM; IC50, cell survival, MiaPaCa-2 [14]: ≥ 20 nM; IC50, cell survival, Molt4 [14]: ≥ 20 nM; IC50, cell survival, Panc-1 [14]: ≥ 20 nM
11H6 tri (trivalent anti-DR5 NB construct) (VHH, three VHH units in one chain joined by GlySer linkers; not shown: CMYC-HIS6 tag) EVQLVESGGGLVQPGGSLRLSCAASGTFDKINNMGWYRQAPGKQRDLVAQITPGGITDYADSVKGRFTISRDNAKDTMYLQMNSLKPEDTAVYFCNAEILKRAYIDVYVNYWGQGTQVTVSSGGGGSGGGGSGGGGSGGGGSGGGGSGGGGSGGGGSEVQLVESGGGLVQPGGSLRLSCAASGTFDKINNMGWYRQAPGKQRDLVAQITPGGITDYADSVKGRFTISRDNAKDTMYLQMNSLKPEDTAVYFCNAEILKRAYIDVYVNYWGQGTQVTVSSGGGGSGGGGSGGGGSGGGGSGGGGSGGGGSGGGGSEVQLVESGGGLVQPGGSLRLSCAASGTFDKINNMGWYRQAPGKQRDLVAQITPGGITDYADSVKGRFTISRDNAKDTMYLQMNSLKPEDTAVYFCNAEILKRAYIDVYVNYWGQGTQVTVSS | no binding (tested: not stated) | no binding (tested: not stated) | no binding (tested: not stated) | no binding (tested: not stated) | no binding (tested: not stated) | no binding (tested: not stated) | no binding (tested: not stated) | no binding (tested: not stated) | no binding (tested: not stated) | no binding (tested: not stated) | no binding (tested: not stated) | no binding (tested: not stated) | 0.0458 | < 0.3 | ≥ 20 | ≥ 20 | ≥ 20 | 0.36 | 0.012 | ≥ 20 | IC50, cell survival, IMR-90 [14]: ≥ 20 nM; IC50, cell survival, Jurkat [14]: ≥ 20 nM; IC50, cell survival, M30 [14]: ≥ 20 nM; IC50, cell survival, MiaPaCa-2 [14]: ≥ 20 nM; IC50, cell survival, Molt4 [14]: ≥ 20 nM; IC50, cell survival, Panc-1 [14]: ≥ 20 nM

Source: patent publication US20150259426A1 (Novartis, published 2015)
